Data on 1 molecule can be found in paper PMC10565793, “Biochemical and X-ray analyses of the players involved in the faRel2/aTfaRel2 toxin–antitoxin operon” (Acta Crystallographica. Section F, Structural Biology …, 2023).

The target in this experiment is T1, FaRel2^Y128F (catalytically impaired toxin FaRel2 from Coprobacillus sp. D7) (Coprobacillus sp. D7, Y128F (stands in the printed letters)).
T1 construct: The His6-SUMO tag was removed with UlpI, and complete removal was confirmed by anti-His Western blot; also called tagless FaRel2^Y128F; His6-SUMO-FaRel2^Y128F (before cleavage); source: E. coli BL21(DE3), purified (Ni-NTA, SEC, UlpI cleavage, TALON, SEC); not shown: His6, N-terminal, cleaved; SUMO, N-terminal, cleaved
As to the kind of experiment: SEC; analytical SEC on a Superdex 75 Increase column in 25 mM HEPES, 300 mM NaCl, 1 mM TCEP, 2 mM MgCl2; proteins run alone, or FaRel2^Y128F and ATfaRel2 mixed in a 1:1.2 molar ratio; molecular weights estimated from elution volume. The following applies: both partners purified.

B1: 6×His-TEV-ATfaRel2 (antitoxin ATfaRel2 from Coprobacillus sp. D7) (natural protein)
chain: AMCYIIAKRFKKSGCVALKAKRGKELADFATDLQKKLGYDIQIVAITRPTAYGEYEPYKFVNSFEEFSIEASRL
notes: The tag is not reported as removed; also called His6-TEV-ATfaRel2; source: E. coli BL21 (DE3), purified (Ni-NTA, SEC)
Usually stoichiometry N stands for a count of units in the complex or per binding partner. For the molecule B1, the “stoichiometry N” value is 1 ATfaRel2 per FaRel2^Y128F (2:2 heterotetramer).
